In PMC2688732:

Target: C-reactive protein (CRP) (human) (UniProt P02741)
Experiment: SPR

Chain of UniProt P02741 (P02741 19-224): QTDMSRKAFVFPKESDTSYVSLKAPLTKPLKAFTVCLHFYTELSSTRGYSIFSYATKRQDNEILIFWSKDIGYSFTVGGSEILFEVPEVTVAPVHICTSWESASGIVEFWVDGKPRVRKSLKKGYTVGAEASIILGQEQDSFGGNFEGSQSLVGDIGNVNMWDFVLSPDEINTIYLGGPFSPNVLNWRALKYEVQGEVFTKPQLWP

Kd: 1.9 µM
Substance: extracellular domain of FcγRIIa (from UniProt P12318 34-204) (receptor)
